# Data taken from PMC8317929 (mAbs, 2021).
# B1: MW06 (antibody, V domains shown)
# VH: EVQLLESGGGLVQPGGSLRLSCAASGFTFSSYAMNWVRQAPGKGLEWVSVISGSGGSTYYADSVRGRFTISRDNSKNTLYLQMNSLRAEDTAVYCCAKGYYYDSSGYYFREDAFDIWGQGTLVTVSS
# VL: DIQMTQSPSAMSASVGDRVTITCRASQGISNYLAWFQQKPGKVPKRLIYAASSLQSGVPSRFSGSGSGTEFTLTISSLQPEDFATYYCLQHNSYPYTFGQGTKLEIK
# B2: MW05 (antibody, V domains shown)
# VH: EVQLVQSGAEVKKPGSSVKVSCKASGGTFSSYAISWVRQAPGQGLEWMGRIIPIFGSSNYAQKFQGRVTITADESTSTAYMELSSLRSEDTAVYYCAESPLGGGSGYSVSWFDPWGQGTLVTVSS
# VL: not shown
# Legend:
# [1] = molecular target: SARS-CoV-2 RBD recombinant protein (SARS-CoV-2, Wuhan-Hu-1 (QHD43416.1), UniProt P0DTC2); test: BLI
# [2] = molecular target: SARS-CoV RBD recombinant protein (SARS-CoV; strain of construct not …, UniProt Q19QX0); test: BLI
Binder,Kd [1] [nM],Kd [2] [nM],binding result [1]
B1,5.48,12.3,
B2,,,binds
